Test results published in paper doi:10.1101/2022.10.04.510915.

What was measured:
[1] = molecular target: JetB (E. coli GF4-3), as subunit of the JetABC complex (E. coli strain GF4-3); experiment: cryo-EM structure
[2] = molecular target: JetC (E. coli GF4-3), as subunit of the JetABC complex (E. coli strain GF4-3); experiment: cryo-EM structure

| stoichiometry N [1] | stoichiometry N [2] | Substance |
| --- | --- | --- |
| 2 |  | JetB (E. coli GF4-3), as subunit of the JetABC complex (natural protein) |
|  | 2 | JetC (E. coli GF4-3), as subunit of the JetABC complex (natural protein) |
